Assay results taken from publication PMC10397247.

Assays:
[1] = target: T1, 4H1046-bA; experiment: two-hybrid library CCNG1; details: mean of both orientations;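 further: natural log of median RNA to DNA barcode read ratio; higher means stronger binding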
T1 chain: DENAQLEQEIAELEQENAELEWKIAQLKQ

[2] = target: T2, 4H1072-bA; experiment: two-hybrid library CCNG1;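 further: natural log of median RNA to DNA barcode read ratio; higher means stronger binding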
T2 chain: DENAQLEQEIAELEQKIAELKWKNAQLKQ

[3] = target: T3, 4H2568-bA; experiment: two-hybrid library CCNG1;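 further: natural log of median RNA to DNA barcode read ratio; higher means stronger binding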
T3 chain: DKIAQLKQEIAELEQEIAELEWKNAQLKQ

[4] = target: T4, 4H2619-bA; experiment: two-hybrid library CCNG1;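 further: natural log of median RNA to DNA barcode read ratio; higher means stronger binding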
T4 chain: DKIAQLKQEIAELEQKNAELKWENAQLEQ

[5] = target: T5, 4H2745-bA; experiment: two-hybrid library CCNG1
T5 chain: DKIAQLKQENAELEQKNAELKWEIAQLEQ

[6] = target: T6, 4H344-bA; experiment: two-hybrid library CCNG1
T6 chain: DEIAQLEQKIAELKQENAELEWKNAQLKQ

[7] = target: T7, 4H363-bA; experiment: two-hybrid library CCNG1
T7 chain: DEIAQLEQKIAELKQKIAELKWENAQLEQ

[8] = target: T8, 4H3907-bA; experiment: two-hybrid library CCNG1
T8 chain: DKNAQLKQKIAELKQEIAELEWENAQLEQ

[9] = target: T9, 4H3961-bA; experiment: two-hybrid library CCNG1; details: mean of both orientations
T9 chain: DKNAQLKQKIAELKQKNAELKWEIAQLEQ

[10] = target: T10, 4H470-bA; experiment: two-hybrid library CCNG1
T10 chain: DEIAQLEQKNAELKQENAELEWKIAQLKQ

[11] = target: T11, 4H1000-AA; experiment: two-hybrid library CCmax
T11 chain: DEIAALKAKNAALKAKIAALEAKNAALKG

[12] = target: T12, 4H1035-AA; experiment: two-hybrid library CCmax; details: mean of both orientations
T12 chain: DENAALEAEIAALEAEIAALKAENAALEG

[13] = target: T13, 4H1064-AA; experiment: two-hybrid library CCmax; details: mean of both orientations
T13 chain: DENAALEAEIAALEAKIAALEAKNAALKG

[14] = target: T14, 4H1109-AA; experiment: two-hybrid library CCmax; details: mean of both orientations
T14 chain: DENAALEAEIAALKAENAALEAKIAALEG

[15] = target: T15, 4H1146-AA; experiment: two-hybrid library CCmax; details: mean of both orientations
T15 chain: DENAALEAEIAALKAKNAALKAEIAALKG

[16] = target: T16, 4H1348-AA; experiment: two-hybrid library CCmax; details: mean of both orientations
T16 chain: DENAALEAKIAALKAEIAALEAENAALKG

[17] = target: T17, 4H1391-AA; experiment: two-hybrid library CCmax; details: mean of both orientations
T17 chain: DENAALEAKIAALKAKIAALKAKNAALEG

[18] = target: T18, 4H146-AA; experiment: two-hybrid library CCmax; details: mean of both orientations
T18 chain: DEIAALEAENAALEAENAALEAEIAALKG

[19] = target: T19, 4H1809-AA; experiment: two-hybrid library CCmax; details: mean of both orientations
T19 chain: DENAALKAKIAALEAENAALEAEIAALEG

[20] = target: T20, 4H1854-AA; experiment: two-hybrid library CCmax; details: mean of both orientations
T20 chain: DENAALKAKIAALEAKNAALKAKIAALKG

[21] = target: T21, 4H189-AA; experiment: two-hybrid library CCmax; details: mean of both orientations
T21 chain: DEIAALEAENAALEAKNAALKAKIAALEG

[22] = target: T22, 4H2248-AA; experiment: two-hybrid library CCmax
T22 chain: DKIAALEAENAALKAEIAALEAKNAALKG

[23] = target: T23, 4H2283-AA; experiment: two-hybrid library CCmax; details: mean of both orientations
T23 chain: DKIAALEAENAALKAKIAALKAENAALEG

[24] = target: T24, 4H2580-AA; experiment: two-hybrid library CCmax
T24 chain: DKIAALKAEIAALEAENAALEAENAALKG

[25] = target: T25, 4H2713-AA; experiment: two-hybrid library CCmax; details: mean of both orientations
T25 chain: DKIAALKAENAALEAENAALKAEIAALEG

[26] = target: T26, 4H2742-AA; experiment: two-hybrid library CCmax; details: mean of both orientations
T26 chain: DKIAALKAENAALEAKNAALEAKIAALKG

[27] = target: T27, 4H2948-AA; experiment: two-hybrid library CCmax; details: mean of both orientations
T27 chain: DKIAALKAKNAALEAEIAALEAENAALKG

[28] = target: T28, 4H2991-AA; experiment: two-hybrid library CCmax; details: mean of both orientations
T28 chain: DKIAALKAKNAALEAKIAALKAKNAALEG

[29] = target: T29, 4H3029-AA; experiment: two-hybrid library CCmax; details: mean of both orientations
T29 chain: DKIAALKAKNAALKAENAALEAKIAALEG

[30] = target: T30, 4H3066-AA; experiment: two-hybrid library CCmax; details: mean of both orientations
T30 chain: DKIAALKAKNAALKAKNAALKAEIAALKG

[31] = target: T31, 4H3102-AA; experiment: two-hybrid library CCmax; details: mean of both orientations
T31 chain: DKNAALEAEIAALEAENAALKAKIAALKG

[32] = target: T32, 4H3121-AA; experiment: two-hybrid library CCmax; details: mean of both orientations
T32 chain: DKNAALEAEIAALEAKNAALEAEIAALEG

[33] = target: T33, 4H3417-AA; experiment: two-hybrid library CCmax; details: mean of both orientations
T33 chain: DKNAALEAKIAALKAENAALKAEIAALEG

[34] = target: T34, 4H3446-AA; experiment: two-hybrid library CCmax; details: mean of both orientations
T34 chain: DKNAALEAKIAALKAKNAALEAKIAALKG

[35] = target: T35, 4H3591-AA; experiment: two-hybrid library CCmax; details: mean of both orientations
T35 chain: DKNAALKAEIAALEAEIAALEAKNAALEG

[36] = target: T36, 4H3628-AA; experiment: two-hybrid library CCmax; details: mean of both orientations
T36 chain: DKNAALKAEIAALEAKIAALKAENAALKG

[37] = target: T37, 4H3666-AA; experiment: two-hybrid library CCmax; details: mean of both orientations
T37 chain: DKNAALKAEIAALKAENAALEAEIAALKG

[38] = target: T38, 4H3709-AA; experiment: two-hybrid library CCmax; details: mean of both orientations
T38 chain: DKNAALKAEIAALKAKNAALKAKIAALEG

[39] = target: T39, 4H391-AA; experiment: two-hybrid library CCmax; details: mean of both orientations
T39 chain: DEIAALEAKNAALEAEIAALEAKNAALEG

[40] = target: T40, 4H3920-AA; experiment: two-hybrid library CCmax; details: mean of both orientations
T40 chain: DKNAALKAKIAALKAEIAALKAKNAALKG

[41] = target: T41, 4H3939-AA; experiment: two-hybrid library CCmax; details: mean of both orientations
T41 chain: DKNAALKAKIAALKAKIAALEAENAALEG

[42] = target: T42, 4H428-AA; experiment: two-hybrid library CCmax; details: mean of both orientations
T42 chain: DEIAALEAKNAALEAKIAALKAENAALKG

[43] = target: T43, 4H478-AA; experiment: two-hybrid library CCmax; details: mean of both orientations
T43 chain: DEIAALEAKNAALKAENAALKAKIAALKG

[44] = target: T44, 4H497-AA; experiment: two-hybrid library CCmax; details: mean of both orientations
T44 chain: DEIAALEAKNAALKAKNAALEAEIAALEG

[45] = target: T45, 4H656-AA; experiment: two-hybrid library CCmax
T45 chain: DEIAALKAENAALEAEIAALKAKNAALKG

[46] = target: T46, 4H675-AA; experiment: two-hybrid library CCmax; details: mean of both orientations
T46 chain: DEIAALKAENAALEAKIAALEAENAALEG

[47] = target: T47, 4H971-AA; experiment: two-hybrid library CCmax; details: mean of both orientations
T47 chain: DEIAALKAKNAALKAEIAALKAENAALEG

DENAQLEQEIAELEQENAELEWKIAQLKQ [4H1046-bA]
interaction score [1]: -0.316
interaction score [2]: -0.435
interaction score [3]: -1.17
interaction score [4]: -0.535
interaction score [5]: 0.103
interaction score [6]: -0.743
interaction score [7]: 0.269
interaction score [8]: -0.392
interaction score [9]: 1.98
interaction score [10]: 0.412

DEIAALKAKNAALKAKIAALEAKNAALKG [4H1000-AA]
interaction score [11]: -0.42
interaction score [12]: -1.26
interaction score [13]: -0.567
interaction score [14]: 1.3
interaction score [15]: -1.52
interaction score [16]: -1.24
interaction score [17]: -1.56
interaction score [18]: -0.33
interaction score [19]: 0.471
interaction score [20]: -1.79
interaction score [21]: -0.933
interaction score [22]: -1.32
interaction score [23]: 0.468
interaction score [24]: -1.04
interaction score [25]: -1.49
interaction score [26]: -1.09
interaction score [27]: 0.224
interaction score [28]: -1.19
interaction score [29]: -0.99
interaction score [30]: -1.96
interaction score [31]: -0.226
interaction score [32]: -0.524
interaction score [33]: -0.644
interaction score [34]: -1.24
interaction score [35]: -0.703
interaction score [36]: -1.21
interaction score [37]: 0.777
interaction score [38]: -1.07
interaction score [39]: 0.223
interaction score [40]: -1.89
interaction score [41]: -1.65
interaction score [42]: -0.137
interaction score [43]: -2.48
interaction score [44]: -1.74
interaction score [45]: 0.604
interaction score [46]: 2.34
interaction score [47]: -0.95
